In paper PMC11993163:

What was measured:
[1] = target: PfNPM A1 (residues 1-110, up to A1 acidic tract) (Plasmodium falciparum) (UniProt C0H4U4); experiment: pull-down
[2] = target: PfNPM A3 (residues 1-170, up to A3 acidic tract) (Plasmodium falciparum) (UniProt C0H4U4); experiment: pull-down

Work on “assembled H3/H4 tetramer (from UniProt P84233 1-136; P62799 1-103) (complex)” yielded a highest NaCl concentration at which the complex was stable [1] of 600 mM NaCl and a highest NaCl concentration at which the complex was stable [2] of 600 mM NaCl.
